{"source": "the nanobody polyreactivity screen of Harvey et al. (2022)", "data": [{"assay": "yeast display, Sf9 membrane polyspecificity reagent, FACS + sequencing; frameworks hold sequencing errors", "in_short": "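After 36–48 hours of galactose induction, yeast (Saccharomyces cerevisiae BJ5465) displaying a synthetic nanobody library were stained at 4 °C for 1 hour with 10% biotinylated, detergent-solubilized Sf9 membrane reagent. Streptavidin microbeads enriched the stained cells before FACS sorting into low and high (top ~1%) gates on anti-HA and streptavidin fluorescence. Each clone's polyreactivity label reflects its gate of origin.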", "values": [{"sequence": "QVQLVESGGGLVQAGGSLRLSCAASGLTFWRYTMGWYRQAPGKERELVAVITYRGGSTYYADSVKGRFTISRDNAKNTVYLQMNSLKPEDTAVYYCAAGRRTYGLTYDYWGQGTQVTVSS", "polyreactivity (PSR sort gate)": "high polyreactivity"}, {"sequence": "QVQLVESGGGLVQAGGSLRLSCAASGLTFWYYAMGWYRQAPGKERELVARITRSGVGTYYADSVKGRFTISRDNAKNTVYLQMNSLKPEDTAVYYCNARYQYSWVRYGYDYWGQGTQVTVSS", "polyreactivity (PSR sort gate)": "high polyreactivity"}, {"sequence": "QVQLVESGGGLVQAGGSLRLSCAASGLTFWYYGMGWYRQAAGKERELDAAISKTGGRTYYADSVKGRFTISRDNAKNTVYLQMNSLKPEDTAVYYCAADTDVLKGTTGFEYWGQGTQVTVSS", "polyreactivity (PSR sort gate)": "low polyreactivity"}, {"sequence": "QVQLVESGGGLVQAGGSLRLSCAASGLTFYAYVMGWYRPAPGNERELVAAISGGGSTYYADSVKGRFTISRDNAKNSVYLEMISLKPEDTAVYYCNAELSLWDLGYDYWVQGTQVTVSS", "polyreactivity (PSR sort gate)": "low polyreactivity"}, {"sequence": "QVQLVESGGGLVQAGGSLRLSCAASGLTFYFYAMGWYRQAPGKERELVAAISYSGGSTYYADSVKGRFTISRDKAENTVYLQMNSLKPEDTAVYYCAARPTDGSGWPYRWTSDYWGHGTQVTVSS", "polyreactivity (PSR sort gate)": "low polyreactivity"}, {"sequence": "QVQLVESGGGLVQAGGSLRLSCAASGLTFYGNAMGWYRQAPGKERELVADISLSGGRTFYADSVKGRFTISRDNAKNTVYLQMNSLKPEDTAVYYCAAVWRTGWYYEYYHWGQGTQVTVSS", "polyreactivity (PSR sort gate)": "low polyreactivity"}, {"sequence": "QVQLVESGGGLVQAGGSLRLSCAASGLTFYGNARGWYRQAPGKERELVADISLSGGRTFYADSVKGRFTISRDNAKHTVYLQMNSLKPEDTAVYYCANTYTSGYHRRYDYWGQGTQVTVSS", "polyreactivity (PSR sort gate)": "low polyreactivity"}, {"sequence": "QVQLVESGGGLVQAGGSLRLSCAASGLTFYIYAMGWYRQAHGKERELVASISSSGGITYYADSVKGRFTISRDNAKNTVYLQMNSLKPEDTAVYYCAATYSHRRGDYWGQGTQVTVSS", "polyreactivity (PSR sort gate)": "high polyreactivity"}, {"sequence": "QVQLVESGGGLVQAGGSLRLSCAASGLTFYQNAMGWYRQAPGKEREFVASITRRGGRTYYADSVKGRFTISRDNAKNTVYLQMNSLKPEDTAVYYCAATFPQYQAIKEDYWGQGTQVTVSP", "polyreactivity (PSR sort gate)": "high polyreactivity"}, {"sequence": "QVQLVESGGGLVQAGGSLRLSCAASGLTFYQYTMGWYRQAPGKERELVAAISRRGGSTYYADSVKGRFTISRDNAKNTVYLQMNSLKPEDTAVYYCAARALRYSRDFDYWGQGTQVTVSS", "polyreactivity (PSR sort gate)": "high polyreactivity"}, {"sequence": "QVQLVESGGGLVQAGGSLRLSCAASGLTFYRNVMGWYRQAPGKERELVAAISGNGGSTYYADSVKGRFTISRDNAKNTVYLQMNSLKPEDTAVYYCATRAYDTGYGYWGQGTQVTVSS", "polyreactivity (PSR sort gate)": "high polyreactivity"}, {"sequence": "QVQLVESGGGLVQAGGSLRLSCAASGLTFYRYAMGWYRQAPGKERELVAAITSGGGRTYYADSVKGRFTISRDNAKNTVYLQMNSLKPEDTAVYYCAADRGDYRWRGLTPSSYGYWGQGTQVTVSS", "polyreactivity (PSR sort gate)": "high polyreactivity"}, {"sequence": "QVQLVESGGGLVQAGGSLRLSCAASGLTFYSYAMGWYRQAPGKERELVATIRWSGGSTYYADSVKGRFTISRDNAKNTVYLQMNSLKPEDTAVYYCATSSTHSRGDEYWGQGTQVTVSS", "polyreactivity (PSR sort gate)": "low polyreactivity"}, {"sequence": "QVQLVESGGGLVQAGGSLRLSCAASGLTFYVNARGWYRQAPGKERELVATISGSGSTNYADSVKGRFTISRDNAKNTVYLQMNSLKPEDTAVYDCNAGWAQDPSNYWGQGTQVTVSS", "polyreactivity (PSR sort gate)": "high polyreactivity"}, {"sequence": "QVQLVESGGGLVQAGGSLRLSCAASGLTFYYYAMGWYRQAPGKEREFVAAISYRGGRTYYADSVKGRFTISRDNAKNTVYLQMNSLKPEDTAVYYCAKLGKSRWWGVGPLEMDSWGQGTQVTVSS", "polyreactivity (PSR sort gate)": "high polyreactivity"}, {"sequence": "QVQLVESGGGLVQAGGSLRLSCAASGLTFYYYAMGWYRQAPGKERELVARISSGTSTYYADSVKGRFTISRDNAKNTVYLQMNSLKPEDTAVYFCNARRKLGSTHGPWGGLVYWGQGTQVTVSS", "polyreactivity (PSR sort gate)": "low polyreactivity"}, {"sequence": "QVQLVESGGGLVQAGGSLRLSCAASGLTFYYYVMGWYRQAPGKERELVAAISYSGGRTYYADSVKGRFTISRDNAKNTVSLQMNSLKPEDTAVYYCAAQSRYGGKFYYWGQGTQVTVSS", "polyreactivity (PSR sort gate)": "high polyreactivity"}, {"sequence": "QVQLVESGGGLVQAGGSLRLSCAASGLTIAAYAMGWYRQAPGKERELVAAITQRGGSTYYADSVKGRFTISRDNAKNTVYLQMNSLKPEDTAVYYCAADSTWWWWKLYSPYGYDYWGQGTQVTVSS", "polyreactivity (PSR sort gate)": "low polyreactivity"}, {"sequence": "QVQLVESGGGLVQAGGSLRLSCAASGLTIYHYAMGWYRQAPGKERELVAAISWNGGSTYYADSVKGRFTFSRDNAKNTVYLQMNSLKPEDTAVYYCAVVFNPHRYTGVLAGYDYWGQGTQVTVSS", "polyreactivity (PSR sort gate)": "high polyreactivity"}, {"sequence": "QVQLVESGGGLVQAGGSLRLSCAASGLTIYYYAMGWYIQAPGKEREFVAAISWHGGSTYYADSVKGRFTISRDNAKNTVYLQMNSLKPEDTAVYYCAADIYLRGFHYDYWGLGTQVTVSS", "polyreactivity (PSR sort gate)": "low polyreactivity"}, {"sequence": "QVQLVESGGGLVQAGGSLRLSCAASGLTLETNAMGWYRQAPGKERELVAGITYSGGTTYYADSVKGRFTISRDNAKNSVYLQINSLKPDDTAVYDCNAGPLRSGRYTYYYWGQGTQVTVSS", "polyreactivity (PSR sort gate)": "low polyreactivity"}, {"sequence": "QVQLVESGGGLVQAGGSLRLSCAASGLTLGRYAMGWYRQAPGNERELVAVITGGGSTNYADSVKGRFTISRDNAKNTVYIQLNSLKPADTAVYYCAVRGGIFQTLSTWYRYYYCGQGTQVTVSS", "polyreactivity (PSR sort gate)": "high polyreactivity"}, {"sequence": "QVQLVESGGGLVQAGGSLRLSCAASGLTLGSYAMGWYRQAPGKERELVAAISRRSGRTYYADSVKGRFTISRDNAKNTVYLKMNSLKPEDTAVDYCNRGYTAQVYTEFDYWGQGTQVTVSS", "polyreactivity (PSR sort gate)": "low polyreactivity"}, {"sequence": "QVQLVESGGGLVQAGGSLRLSCAASGLTLHGNAMGWYSQAPGKERGLVATITSSGGSTFYADSVKGRFTISRDNAKNTVSLQMNSLKPEDTAVFYCNADAPYSDDYYVRFDYWGQGTQVTVSS", "polyreactivity (PSR sort gate)": "low polyreactivity"}, {"sequence": "QVQLVESGGGLVQAGGSLRLSCAASGLTLKTYAMGWYRQAPGKERELVAGISASGGSTYYADSVKGRFTISRDIAKNTVYLQLNSLKPVDTAVYYCAKVTRAYRAYYYWGQGTQVTVSS", "polyreactivity (PSR sort gate)": "high polyreactivity"}, {"sequence": "QVQLVESGGGLVQAGGSLRLSCAASGLTLNYYAMGWYRQAPGKERELVASISRSGGRTYYADSVKGRFTISRVNAKNTVYLQMNSLKPDDSAVYYCNADWYRGRYDYWGQGTQVTVSS", "polyreactivity (PSR sort gate)": "high polyreactivity"}, {"sequence": "QVQLVESGGGLVQAGGSLRLSCAASGLTLPSYVMGCYRQAPGKERELVAAISNSGGSTYYADSVKGRFTISRDTAKNTVYLQMNSLKPEDTAVYYCAAVYGYLLYFLLLPFTRDDYWGQGTQVTVSS", "polyreactivity (PSR sort gate)": "high polyreactivity"}, {"sequence": "QVQLVESGGGLVQAGGSLRLSCAASGLTLRNYAKGWYREAPGKDRELVAAITTGGGRTFYADSVKGRFTISRDKAKNTVYLETNSLNPEDTAVYYCAAERAILSSDKQSLWRFDYWGQGTQVTVSS", "polyreactivity (PSR sort gate)": "low polyreactivity"}, {"sequence": "QVQLVESGGGLVQAGGSLRLSCAASGLTLRNYAMGWYRQAPGKERELVAAITTGGGRTYYADSVKGRFTISRDYAKNTVFLQMKSLKPEDTAVYYCAAEGAILSSDKQSLWRFDYWGQGTQVTVSS", "polyreactivity (PSR sort gate)": "low polyreactivity"}, {"sequence": "QVQLVESGGGLVQAGGSLRLSCAASGLTLRTNSMRLYIQAPGKERELVAAISRSGVRTYYAHSVKGRFTISRDNAKNTVYLQMNSLKPEDTAVYYCNAEFSPYPYDYWGQGTQVTVSS", "polyreactivity (PSR sort gate)": "high polyreactivity"}, {"sequence": "QVQLVESGGGLVQAGGSLRLSCAASGLTLSGNAMGWYRQAPGKETELVAAITGRGGSTTYADSVKGRFTISRDNAKTTVYLQMNSLKPEDTAVYYCAADHAWYSLFDYWGQGTQVTVSS", "polyreactivity (PSR sort gate)": "low polyreactivity"}, {"sequence": "QVQLVESGGGLVQAGGSLRLSCAASGLTLSYYAMGWYRPAPGKEMELVAAISSGGSTYYADSVKGRFTISRDNAKNTVYLQMNSLKPEDTAVYYCAAQWWRLYWEYYYWGQGTQVTVSS", "polyreactivity (PSR sort gate)": "low polyreactivity"}, {"sequence": "QVQLVESGGGLVQAGGSLRLSCAASGLTLTYYAMGWYRQAPGKERELVAAISSSGGSTYYADSVKGRFTISRDNAKNTVYLQMNSLKPEDTAVYYCAARDWASHTPFDYWGQGTQVTVSS", "polyreactivity (PSR sort gate)": "high polyreactivity"}, {"sequence": "QVQLVESGGGLVQAGGSLRLSCAASGLTMTWNSMGWYRQAPGKERELVAAIRWRGSSTYYADSVKGRFTISRDNAKNTVYLQLNSLKPEDTAVYYCAAEPRYYHVGYEYDNWGQGTQVTVSS", "polyreactivity (PSR sort gate)": "high polyreactivity"}, {"sequence": "QVQLVESGGGLVQAGGSLRLSCAASGLTSIHYMGWYRQAPGKERELVATITSSTGSTYYADSVKGRFTISRDNAKNTVYLQMNSLKPEDTAVYYCAAESFGADGPYQPSYDYWGQGTQVTVSS", "polyreactivity (PSR sort gate)": "low polyreactivity"}, {"sequence": "QVQLVESGGGLVQAGGSLRLSCAASGLTSVYNAMGWYRQAPGKERELVAAISWRGGRTYYADSVKGRFTISRDNAKNTVYLQMNSLKPEDTAVYYCARGYYTRPYYNPVFGYNYWGQGTQVTVSS", "polyreactivity (PSR sort gate)": "high polyreactivity"}, {"sequence": "QVQLVESGGGLVQAGGSLRLSCAASGLTVVIYAMGWYRKAPGKERELVARITCSGGSTYYADSVKGRFTISRDNAKNTVYLQMISLQPEVTAVYYCAARRFYYYNAVYDYWGQGTQVTVSS", "polyreactivity (PSR sort gate)": "low polyreactivity"}, {"sequence": "QVQLVESGGGLVQAGGSLRLSCAASGLTYWAYAMGWYRQAPGKERDFVAAISWSGDSTYYADSVKGRYTISRDNAKNTVYLQMNSLKPEDTAVYYCAAEWYYVYIAPYDYLGQGTQVTVSS", "polyreactivity (PSR sort gate)": "low polyreactivity"}, {"sequence": "QVQLVESGGGLVQAGGSLRLSCAASGMIFTLYAMGWNRQAPGKERELVAGIDASGGSTSYADSVKGRFTISRDNAKNTVYLQMNSLKPEDTAVYYCAARILPYGYDYWGQGTQVTVSS", "polyreactivity (PSR sort gate)": "low polyreactivity"}, {"sequence": "QVQLVESGGGLVQAGGSLRLSCAASGMILGVNVMGWYRQAPGKERELVAAISGGGRTYYADSVKGRFTISRDNAKNTVYLLMNSLKPEDTAVYYCAARVYSLGYGGDYWGQGTHVTVSS", "polyreactivity (PSR sort gate)": "high polyreactivity"}, {"sequence": "QVQLVESGGGLVQAGGSLRLSCAASGNAMGWYRPAPGKERELVAAITRRGGSTYYADSVKGRFTISRDNAKNTVYLQMNSLKPEDSAVYYCAADNPSYNLWYGYWGLGTQVTVSS", "polyreactivity (PSR sort gate)": "low polyreactivity"}, {"sequence": "QVQLVESGGGLVQAGGSLRLSCAASGNIFADYAMGWYRQAPGKERELVAAISRGGITSYADSVKGRFTISRDNAKNTVYLQMNSLKPEDTAVYYCATDRYDVYDSLGFGYWGQGTQVTVSS", "polyreactivity (PSR sort gate)": "low polyreactivity"}, {"sequence": "QVQLVESGGGLVQAGGSLRLSCAASGNIFANYAMGWYRQAPGKERELVAAIRWSASRPYYADSVKGRFTISRDNAKNTVYLQMNSLKPEDTAVYYCAATIYTFWDYYYDYWGQGTQVTVSS", "polyreactivity (PSR sort gate)": "high polyreactivity"}]}]}
